Measured values as given in publication PMC12266039.

Key:
[1] = target: human FcRn receptor (neonatal Fc receptor) (human) (UniProt P55899); experiment: SPR
[2] = target: BG505 DS-SOSIP.664 (gp140 trimer) (HIV (BG505)) (UniProt Q2N0S6); experiment: SPR

Sequence of griffithsin (GRFT) (P84801 whole entry): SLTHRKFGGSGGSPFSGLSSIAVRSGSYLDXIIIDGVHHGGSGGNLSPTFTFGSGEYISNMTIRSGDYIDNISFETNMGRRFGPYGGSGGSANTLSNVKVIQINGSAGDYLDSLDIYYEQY

## VRC01 (standard anti-HIV broadly neutralizing antibody)
[1]
  Kd: 0.0782 µM

## griffithsin (GRFT) (from UniProt P84801 1-121) (natural protein)
[2]
  koff: 0.0136 s⁻¹
  kon: 1.42e+07 M⁻¹ s⁻¹
